From patent publication US20250340631A1 (HARBOUR BIOMED SHANGHAI, published 2025)

Experiments:
human CLDN18.2 [1] = target: T1, human CLDN18.2 (human); assay: competition FACS on HEK293/hCLDN18.2 cells; competitor 10 nM biotinylated PR000400
T1 construct: the HEK293 line was made with a GenScript plasmid; also called hCLDN18.2

human CLDN18.2 [2] = target: T1, human CLDN18.2; assay: FACS on HEK293/hCLDN18.2 cells
Description: (§1) The binding affinity of an antibody was detected by FACS using human CLDN18.1-expressing HEK293 cells, human CLDN18.2-expressing HEK293 cells, NUGC4_D8 cells and SNU601 cells endogenously expressing human CLDN18.2 (Cobioer, CBP60507). […] The cell density was adjusted to 10⁶ cells/mL, and 50 μL of the cell suspension was added to each well of a 96-well plate. Antibodies were diluted to different concentrations with FACS buffer, and 50 μL of the antibody dilution was added to each well of the 96-well plate. After 2 h of incubation at 4° C., the plate was washed twice with FACS buffer. […] After 1 h of incubation at 4° C., the plate was washed twice with FACS buffer. The cells were resuspended in fixative solution, and then the fluorescence of the cells was monitored using an FACS instrument (ACEA NovoCyte).

human CLDN18.2 [3] = target: T1, human CLDN18.2; assay: competition FACS on HEK293/hCLDN18.2 cells; competitor 10 nM biotinylated PR000400; remark: listed apart in the source
Description: (§2) This example is to study the binding of anti-human CLDN18.2 HCAb monoclonal antibodies to the epitope region of human CLDN18.2 antigen. Competitive binding experiments were performed at the cellular level using HEK293/hCLDN18.2 cells overexpressing human CLDN18.2. […] Then suspension of HEK293/hCLDN18.2 cells overexpressing human CLDN18.2 were adjusted to 3×10⁶ cells/mL, seeded 50 L/well. The cells were co-incubated at 4° C. for 2 h. The cells in each well were washed twice with 200 μL of pre-cooled FACS buffer (2% FBS in PBS) and centrifuged at 500 g at 4° C. for 5 min, and then the supernatant was discarded. […] The cells in each well were washed twice with 200 μL of pre-cooled FACS buffer (2% FBS in PBS) and centrifuged at 500 g at 4° C. for 5 min, and then the supernatant was discarded. Finally, the cells in each well were resuspended in 200 μL of pre-cooled FACS buffer, and the fluorescence signal values were read using a BD FACS CANTOII.

human CLDN18.2 [4] = target: T1, human CLDN18.2; assay: competition FACS on HEK293/hCLDN18.2 cells; competitor 200 nM biotinylated PR004549
Description: This example is to study the binding of anti-human CLDN18.2 bispecific antibodies to the epitope region of a human CLDN18.2 antigen. Competitive binding experiments were performed at the cellular level using human CLDN18.2-overexpressing HEK293/hCLDN18.2 cells. […] The mixture was well mixed and incubated at 4° C. for 30 min. 25 μL of the corresponding serially diluted non-biotinylated anti-human CLDN18.2 antibody was added. The mixture was well mixed and incubated at 4° C. for 1 h. The cells in each well were washed twice with 200 μL of pre-cooled FACS buffer (2% BSA in DPBS) and centrifuged at 500 g at 4° C. for 5 min, and then the supernatant was discarded. A fluorescent secondary antibody (Jackson ImmunoResearch, 016-540-084, 1:500) was added. The mixture was incubated at 4° C. in the absence of light for 1 h. The cells in each well were washed twice with 200 μL of pre-cooled FACS buffer (2% BSA in DPBS) and centrifuged at 500 g at 4° C. for 5 min, and then the supernatant was discarded. Finally, the cells in each well were resuspended in 200 μL of pre-cooled FACS buffer, and the fluorescence signal values were read using a ACEA_NovoCyte.

human CLDN18.2 [5] = target: T1, human CLDN18.2; assay: FACS on NUGC4_D8 cells
Description: as §1

human CLDN18.2 [6] = target: T1, human CLDN18.2; assay: competition FACS on HEK293/hCLDN18.2 cells; competitor 200 nM biotinylated PR004549; remark: listed apart in the source
Description: as §2

human CLDN18.2 [7] = target: T1, human CLDN18.2; assay: FACS on NUGC4_D8 cells; remark: listed apart in the source
Description: as §1

human CLDN18.2 [8] = target: T1, human CLDN18.2; assay: FACS on SNU601 cells
Description: as §1

[9] = target: T2, Biotinylated human CD3E&D (human, UniProt P07766 23-126; P04234 22-105, biotin label); assay: BLI (Octet), biotinylated CD3 on SA sensor, 1:1 global fit;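 note: antibodies applied as analyte in 2-fold serial dilutions, with a 180 s association phase followed by a 300 s dissociation phase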
T2 construct: also called CDD-H82W6
T2 sequence (P07766 23-126, chain 1 of 2): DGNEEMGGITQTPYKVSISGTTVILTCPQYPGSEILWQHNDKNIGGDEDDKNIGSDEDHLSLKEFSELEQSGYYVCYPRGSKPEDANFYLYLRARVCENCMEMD
T2 sequence (P04234 22-105, chain 2 of 2): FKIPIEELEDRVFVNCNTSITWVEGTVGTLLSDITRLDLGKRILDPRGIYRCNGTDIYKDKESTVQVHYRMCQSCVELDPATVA
Description: The binding kinetics between proteins and antibodies was analyzed by the Biolayer Interferometry (BLI) technique using an Octet Red 96e (Fortebio) system. Human CD3E (Acro, CDE-H5223), cynomolgus CD3E (Acro, CDE-C5226) and murine CD3E (Acro, CDE-M5256) were mixed with biotin (Thermo Scientific, A39257) in a molar ratio of 1:3. The mixture was incubated at 4° C. overnight, and then excess biotin was removed to obtain biotinylated CD3E. The rotation speed was set at 1000 rpm for the system. […] After being equilibrated in the buffer for 120 s, the SA sensor with captured CD3 was allowed to bind to 2-fold serially diluted antibodies. […] Finally, the SA sensor was immersed in a 10 mM glycine-hydrochloric acid solution at pH 1.5 for regeneration to elute the antibodies bound to the sensor. […] For the interactions of fast binding and fast dissociation, the “steady state” method was selected to fit the data to obtain KD(M) values.

EC50 (human CLDN18.2 [2]) [nM]	Emax (MFI) (human CLDN18.2 [2])	IC50 (human CLDN18.2 [3]) [nM]	Maximum inhibition rate (%) (human CLDN18.2 [3])	EC50 (human CLDN18.2 [5]) [nM]	Emax (MFI) (human CLDN18.2 [5])	IC50 (human CLDN18.2 [6]) [nM]	Maximum inhibition rate (%) (human CLDN18.2 [6])	Binder	also measured
35.3	1.27e+06							PR007247 (antibody, human IgG1, V domains shown, HCDR2 PTM-removal mutant of PR004536; HCAb, human IgG1 Fc; also called 4536_M8A6) VH: EVQLVESGGGLVQPGGSLRLSCAASGFTFSSYWMYWVRQVPGKGLVWVSHINPLGSTTQYADSVKGRFTISRDNAKNMLYLQMNSLRAEDTAVYYCARDFPVLGGSHFDFQHWGQGTLVTVSS	
12.8	1.31e+06			74.6	174000			PR007248 (antibody, human IgG1, V domains shown, HCDR2 PTM-removal mutant of PR004533; HCAb, human IgG1 Fc; also called 4533_M10E7) VH: EVQLVESGGGLVQPGGSLRLSCAASGFTFSSYWMHWVRQVPGKGLVWVSRINHDSSRTIYADSVKGRFTISRDNAKNTLYLQMNSLRAEDTAVYYCARGEDHDILTGYPIRGQGTTVTVSS	
14.4	1.37e+06			55.9	166000			PR007246 (antibody, human IgG1, V domains shown, HCDR2 PTM-removal mutant of PR004533; HCAb, human IgG1 Fc; also called 4533_M3F10) VH: EVQLVESGGGLVQPGGSLRLSCAASGFTFSSYWMHWVRQVPGKGLVWVSRISSTGSRTIYADSVKGRFTISRDNAKNTLYLQMNSLRAEDTAVYYCARGEDHDILTGYPIRGQGTTVTVSS	
11.7	1.3e+06			49.2	153000			PR007244 (antibody, human IgG1, V domains shown, HCDR2 PTM-removal mutant of PR004533; HCAb, human IgG1 Fc; also called 4533_M4H6) VH: EVQLVESGGGLVQPGGSLRLSCAASGFTFSSYWMHWVRQVPGKGLVWVSRIDSRGSRTIYADSVKGRFTISRDNAKNTLYLQMNSLRAEDTAVYYCARGEDHDILTGYPIRGQGTTVTVSS	
13	1.31e+06			63.2	137000			PR007245 (antibody, human IgG1, V domains shown, HCDR2 PTM-removal mutant of PR004533; HCAb, human IgG1 Fc; also called 4533_M6E6) VH: EVQLVESGGGLVQPGGSLRLSCAASGFTFSSYWMHWVRQVPGKGLVWVSRISSDASRTIYADSVKGRFTISRDNAKNTLYLQMNSLRAEDTAVYYCARGEDHDILTGYPIRGQGTTVTVSS	

The next lines start with the binder.

Binder	EC50 (human CLDN18.2 [2]) [nM]	Emax (MFI) (human CLDN18.2 [2])	IC50 (human CLDN18.2 [3]) [nM]	Maximum inhibition rate (%) (human CLDN18.2 [3])	EC50 (human CLDN18.2 [5]) [nM]	Emax (MFI) (human CLDN18.2 [5])	IC50 (human CLDN18.2 [6]) [nM]	Maximum inhibition rate (%) (human CLDN18.2 [6])	also measured
PR000400 (antibody, human IgG1, kappa, V domains shown, also called IMAB362 analogue) VH: QVQLQQPGAELVRPGASVKLSCKASGYTFTSYWINWVKQRPGQGLEWIGNIYPSDSYTNYNQKFKDKATLTVDKSSSTAYMQLSSPTSEDSAVYYCTRSWRGNSFDYWGQGTTLTVSS VL: DIVMTQSPSSLTVTAGEKVTMSCKSSQSLLNSGNQKNYLTWYQQKPGQPPKLLIYWASTRESGVPDRFTGSGSGTDFTLTISSVQAEDLAVYYCQNDYSYPFTFGSGTKLEIKR	5.6	1.32e+06	20.1	96.4	56.4	58400	11.5	90.7	IC50 (human CLDN18.2 [1]): 36.2 nM; Maximum inhibition rate (%) (human CLDN18.2 [1]): 92.7%; IC50 (human CLDN18.2 [4]): 25.2 nM; Maximum inhibition rate (%) (human CLDN18.2 [4]): 52.3%; EC50 (human CLDN18.2 [7]): 17 nM; Emax (MFI) (human CLDN18.2 [7]): 101000 MFI
PR004536 (antibody, V domains shown, anti-CLDN18.2 HCAb: VH fused to human IgG1 Fc, no light chain; also called R1029P028A11) VH: EVQLVESGGGLVQPGGSLRLSCAASGFTFSSYWMYWVRQVPGKGLVWVSHINSDGSTTQYADSVKGRFTISRDNAKNMLYLQMNSLRAEDTAVYYCARDFPVLGGSHFDFQHWGQGTLVTVSS			103	98			74.1	90.1	EC50 (human CLDN18.2 [8]): 52.7 nM; Emax (MFI) (human CLDN18.2 [8]): 15800 MFI
PR002199 (bispecific antibody) chain 1: not shown chain 2: EVQLVESGGGLVQPGRSLRLSCAASGFTFDDYAMHWVRQAPGKGLEWVSGISWNSGSIGYADSVKGRFTISRDNAKNSLYLQMNSLRAEDTALYYCAKDSRGYGDYRLGGAYWGQGTLVTVSSASTKGPSVFPLAPSSKSTSGGTAALGCLVKDYFPEPVTVSWNSGALTSGVHTFPAVLQSSGLYSLSSVVTVPSSSLGTQTYICNVNHKPSNTKVDKKVEPKSCDKTHTCPPCPAPEAAGGPSVFLFPPKPKDTLMISRTPEVTCVVVDVSHEDPEVKFNWYVDGVEVHNAKTKPREEQYNSTYRVVSVLTVLHQDWLNGKEYKCKVSNKALGAPIEKTISKAKGQPREPQVYTLPPCREEMTKNQVSLWCLVKGFYPSDIAVEWESNGQPENNYKTTPPVLDSDGSFFLYSKLTVDKSRWQQGNVFSCSVMHEALHNHYTQKSLSLSPGK chain 3: EVQLLESGGGLVQPGGSLRLSCAASGFTVSSYGMSWVRQAPGKGPEWVSGIRGSDGSTYYADSVKGRFTISRDNSKNTLYLQMNSLRAEDTAVYYCAKQGENDGPFDHRGQGTLVTVSSGGGGSEVQLLESGGGLVQPGGSLRLSCAASGFTVSSYGMSWVRQAPGKGPEWVSGIRGSDGSTYYADSVKGRFTISRDNSKNTLYLQMNSLRAEDTAVYYCAKQGENDGPFDHRGQGTLVTVSSASEPKSSDKTHTCPPCPAPEAAGGPSVFLFPPKPKDTLMISRTPEVTCVVVDVSHEDPEVKFNWYVDGVEVHNAKTKPREEQYNSTYRVVSVLTVLHQDWLNGKEYKCKVSNKALGAPIEKTISKAKGQPREPQVCTLPPSREEMTKNQVSLSCAVKGFYPSDIAVEWESNGQPENNYKTTPPVLDSDGSFFLVSKLTVDKSRWQQGNVFSCSVMHEALHNHYTQKSLSLSPGK									Kd [9]: 241 nM; koff [9]: 0.0518 s⁻¹; kon [9]: 215000 M⁻¹ s⁻¹
PR004953 (antibody, V domains shown, anti-CLDN18.2 HCAb: VH fused to human IgG1 Fc, no light chain; also called R1029P024B07) VH: EVQLVESGGGVVQPGRSLRLSCAASGFTFSSYGMHWVRQAPGKGLEWVAVIGYDGRNKYYADSVKGRFTISRDNSKNTLFLQMDNLRAEDTALYYCARHFPSLPGTTDTFDIRGPGTMVTVSS			16.7	98			13.8	93.2	EC50 (human CLDN18.2 [7]): 12 nM; Emax (MFI) (human CLDN18.2 [7]): 219000 MFI
PR004227 (antibody, V domains shown, anti-CLDN18.2 HCAb: VH fused to human IgG1 Fc, no light chain; also called R1029P(CG20)001B02) VH: EVQLVESGGGLVQPGGSLRLSCAASGFTFSSYWMHWVRQAPGKGLEWVSYINNDGSSTRYADSVKGRFTISRDNAKNTLYLQMNSLRAEDTAVYYCTEAPPYGNYERDYWGQGTLVTVSS			22.3	98.3			20.3	93.8	EC50 (human CLDN18.2 [8]): 28.5 nM; Emax (MFI) (human CLDN18.2 [8]): 14800 MFI
PR004533 (antibody, V domains shown, anti-CLDN18.2 HCAb: VH fused to human IgG1 Fc, no light chain; also called R1029P021E10) VH: EVQLVESGGGLVQPGGSLRLSCAASGFTFSSYWMHWVRQVPGKGLVWVSRINSDGSRTIYADSVKGRFTISRDNAKNTLYLQMNSLRAEDTAVYYCARGEDHDILTGYPIRGQGTTVTVSS			25.5	98.6			23.2	93.7	EC50 (human CLDN18.2 [8]): 11.9 nM; Emax (MFI) (human CLDN18.2 [8]): 11300 MFI; EC50 (human CLDN18.2 [7]): 25 nM; Emax (MFI) (human CLDN18.2 [7]): 183000 MFI
PR007243 (antibody, human IgG1, V domains shown, HCDR2 PTM-removal mutant of PR004533; HCAb, human IgG1 Fc; also called 4533_M3D9) VH: EVQLVESGGGLVQPGGSLRLSCAASGFTFSSYWMHWVRQVPGKGLVWVSRISSAGSRTIYADSVKGRFTISRDNAKNTLYLQMNSLRAEDTAVYYCARGEDHDILTGYPIRGQGTTVTVSS	13.3	1.47e+06			78.2	176000			
PR004540 (antibody, V domains shown, anti-CLDN18.2 HCAb: VH fused to human IgG1 Fc, no light chain; also called R1029P037B07) VH: EVQLVESGGGLVQPGGSLRLSCAASGFTFSIYWMHWVRQVPGKGLVLVSRISSDGNYTSYADSVKGRFTISRDNAKNTLYLQMNSLRAEDTAVYLCARGEDHDMLTGYPVRGQGTTVTVSS			64.1	95.8			50	89.2	
PR007242 (antibody, human IgG1, V domains shown, HCDR2 PTM-removal mutant of PR004533; HCAb, human IgG1 Fc; also called 4533_M10E1) VH: EVQLVESGGGLVQPGGSLRLSCAASGFTFSSYWMHWVRQVPGKGLVWVSRINFDSSRTIYADSVKGRFTISRDNAKNTLYLQMNSLRAEDTAVYYCARGEDHDILTGYPIRGQGTTVTVSS	11.3	1.48e+06			69.5	176000			
